In paper PMC4427162:

Experiments:
[1] = molecular target: Leishmania major tubulin-binding cofactor A (Leishmania major Friedlin); assay: SEC; calibrated Superdex 75 26/60 column, 50 mM Tris-HCl, 250 mM NaCl pH 7.5, no reducing agent
[2] = molecular target: Leishmania major tubulin-binding cofactor A (Leishmania major Friedlin); assay: MALDI-TOF mass spectrometry; sample that was used for crystallization (the approx. 27 kDa gel-filtration peak)

- stoichiometry N [1]: 2
- stoichiometry N [2]: 2
Substance: Leishmania major tubulin-binding cofactor A (natural protein)
